Experimental data from patent publication US8609413B2, “Neurons, astrocytes and oligodendrocytes differentiated from a mammalian pluripotent or neural stem cells exposed to a pyridine deriviative” (Research Development Foundation, priority 2007, dated 2013).

System: human ESC-derived NPC / ESC aggregates
Assay: Air/liquid interface three-dimensional culture with added factors
Type: cell-based
Details: exogenously added factor
Text: Air/liquid interface expansion/differentiation of NPC may be performed via the following protocol. One or more rosettes-enriched clusters may be manually removed and multiple clusters (e.g., about 5-10 clusters) may be plated on a hydrophilic polytetrafluoroethylene (PTFE) membrane (e.g., 6 mm diameter, 0.4 μm, BioCell-Interface, La Chaux-de-Fonds, Switzerland). This membrane may be deposited on a Millicell®-CM (0.4 μm) Culture Plate Insert (Millipore) (FIG. 5A). N2 medium may preferably be added (e.g., about 1 ml) underneath the membrane insert.
Air/liquid interface expansion/differentiation of NPC. Rosettes-enriched cluster were manually removed and 5-10 clusters were plated on a hydrophilic polytetrafluoroethylene (PTFE) membrane (6 mm diameter, 0.4 μm, BioCell-Interface, La Chaux-de-Fonds, Switzerland). This membrane was deposited on a Millicell®-CM (0.4 μm) Culture Plate Insert (Millipore) (FIG. 1). One ml of N2 medium was added underneath the membrane insert.

B1: Noggin: a polypeptide playing a key role in neural induction (protein, UniProt Q13253 28-232, looked up)
Noggin: QHYLHIRPAPSDNLPLVDLIEHPDPIFDPKEKDLNETLLRSLLGGHYDPGFMATSPPEDRPGGGGGAAGGAEDLAELDQLLRQRPSGAMPSEIKGLEFSEGLAQGKKQRLSKKLRRKLQMWLWSQTFCPVLYAWNDLGSRFWPRYVKVGSCFSKRSCSVPEGMVCKPSKSVHLTVLRWRCQRRGGQRCGWIPIQYPIISECKCSC
phenotype of engineered tissue: had no influence on the self-organization and phenotype
